Among the data in patent US20230093155A1 are CD8 T cell proliferation EC50 (pM) and Fold change vs. P-0313 values, retold here.

Values joined by “and” are separate entries in the source; they are usually repeats but may differ in a detail not shown here. Equal values may be shown once.

Chain of IL-2Rβ and γc complex expressed on the lymphocytes (human) (P14784 27-551, chain 1 of 2): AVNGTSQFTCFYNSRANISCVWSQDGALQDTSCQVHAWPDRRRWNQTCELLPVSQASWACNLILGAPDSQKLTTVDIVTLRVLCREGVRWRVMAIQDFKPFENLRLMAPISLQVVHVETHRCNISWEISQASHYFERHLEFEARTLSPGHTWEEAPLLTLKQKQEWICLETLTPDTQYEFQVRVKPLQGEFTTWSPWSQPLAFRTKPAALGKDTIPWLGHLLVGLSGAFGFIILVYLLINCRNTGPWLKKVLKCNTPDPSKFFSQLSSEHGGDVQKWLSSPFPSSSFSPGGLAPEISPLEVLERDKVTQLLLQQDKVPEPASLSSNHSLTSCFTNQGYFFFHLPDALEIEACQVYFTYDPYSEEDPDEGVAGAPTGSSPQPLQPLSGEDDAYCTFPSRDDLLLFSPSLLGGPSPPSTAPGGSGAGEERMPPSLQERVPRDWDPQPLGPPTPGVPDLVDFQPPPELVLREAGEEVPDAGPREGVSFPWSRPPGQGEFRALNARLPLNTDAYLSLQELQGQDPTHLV
Chain of IL-2Rβ and γc complex expressed on the lymphocytes (human) (P31785 23-369, chain 2 of 2, further chain): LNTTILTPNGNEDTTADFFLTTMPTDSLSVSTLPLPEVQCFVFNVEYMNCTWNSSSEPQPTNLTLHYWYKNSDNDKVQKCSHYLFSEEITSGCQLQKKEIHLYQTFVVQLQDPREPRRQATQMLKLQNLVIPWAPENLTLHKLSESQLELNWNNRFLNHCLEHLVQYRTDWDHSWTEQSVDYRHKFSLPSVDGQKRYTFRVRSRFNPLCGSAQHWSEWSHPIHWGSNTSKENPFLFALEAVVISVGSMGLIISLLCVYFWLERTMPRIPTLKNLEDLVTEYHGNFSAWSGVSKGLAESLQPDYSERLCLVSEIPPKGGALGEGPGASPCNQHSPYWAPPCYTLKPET

This experiment has as its target IL-2Rβ and γc complex expressed on the lymphocytes (human) (UniProt P14784). Put plainly: cell-based or functional assay.
In turn, “P-0773 (IL-15 V63A/I68H variant/IL-15RαSushi Fc fusion protein) (from UniProt Q13261 31-107)” returned a CD8 T cell proliferation EC50 (pM) of 1420 pM and a Fold change vs. P-0313 of 45 fold.
Turning to “P-0771 (IL-15 V63A/IL-15Rα Fc fusion) (from UniProt Q13261 31-107)”, the CD8 T cell proliferation EC50 (pM) was 132 pM and the Fold change vs. P-0313 was 4.2 fold.
For “P-0770 (IL-15 V63R/IL-15Rα Fc fusion) (from UniProt Q13261 31-107)”, the CD8 T cell proliferation EC50 (pM) was 184 pM and the Fold change vs. P-0313 amounted to 5.8 fold.
Taken in the same sequence, the figures for “P-0738 (IL-15 I68K/IL-15Rα Fc fusion) (from UniProt Q13261 31-107)” were 24800 pM and 564 fold.
As to “P-0356 (IL-15 I68F/IL-15Rα Fc fusion) (from UniProt Q13261 31-107)”, the CD8 T cell proliferation EC50 (pM) worked out at 1250 pM and the Fold change vs. P-0313 turned out to be 29 fold.
As to “P-0313 (IL-15 S58D/IL-15Rα Fc fusion) (from UniProt Q13261 31-107)”, the CD8 T cell proliferation EC50 (pM) is 44 pM and 32 pM; the Fold change vs. P-0313 is 1 fold.
As to “P-0737 (IL-15 I68G/IL-15Rα Fc fusion) (from UniProt Q13261 31-107)”, the CD8 T cell proliferation EC50 (pM) was 14500 pM and the Fold change vs. P-0313 came to 330 fold.
Regarding “P-0764 (IL-15 Q108S/IL-15Rα Fc fusion protein) (from UniProt P0DOX5 223-448; Q13261 31-107)”, the CD8 T cell proliferation EC50 (pM) came out at 62100 pM and the Fold change vs. P-0313 was determined as 1960 fold.
The substance “P-0768 (IL-15 V63A/I68G/IL-15Rα Fc fusion) (from UniProt Q13261 31-107)” gave a CD8 T cell proliferation EC50 (pM) of 48000 pM and a Fold change vs. P-0313 of 1510 fold.
On to “P-0358 (IL-15 I68H/IL-15Rα Fc fusion) (from UniProt Q13261 31-107)”, for which the CD8 T cell proliferation EC50 (pM) came to 419 pM and the Fold change vs. P-0313 turned out to be 9.5 fold.
On the same counts, the results for “P-0736 (IL-15 I68Q/IL-15Rα Fc fusion) (from UniProt Q13261 31-107)” are 4470 pM and 102 fold.
Taken in the same sequence, the figures for “P-0793 (IL-15 Q108A/IL-15Rα Fc fusion) (from UniProt P0DOX5 223-448; Q13261 31-107)” were 68800 pM and 2170 fold.
In turn, “P-0357 (IL-15 I68D/IL-15Rα Fc fusion) (from UniProt Q13261 31-107)” displayed a CD8 T cell proliferation EC50 (pM) of 296000 pM and a Fold change vs. P-0313 of 6730 fold.
In turn, “P-0769 (IL-15 V63K/IL-15Rα Fc fusion) (from UniProt Q13261 31-107)” displayed a CD8 T cell proliferation EC50 (pM) of 360 pM and a Fold change vs. P-0313 of 11.3 fold.
“P-0772 (IL-15 V63A/I68Q/IL-15Rα Fc fusion) (from UniProt Q13261 31-107)”: the CD8 T cell proliferation EC50 (pM) amounted to 15400 pM and the Fold change vs. P-0313 was found to be 485 fold.
